Results from the supplement of paper PMC7877785.
± gives the uncertainty stated by the source.

Experiment: self-splicing fitness, log relative to wild type (ln ratio); higher = more splicing; Tetrahymena group I intron in knt gene, E. coli kanamycin selection, DiMSum; sequences stand for … in CUCUCU…GGAGGGAAAAGUUAUCAGGCAUGCACCUGGUAGCUAGUCUUUAAACCAAUAGAUUGCAUCGGUUUAAAAGGCAAGACCGUCAAAUUGCGGGAAAGGGGUCAACAGCCGUUCAGUACCAAGUCUCAGGGGAAACUUUGAGAUGGCCUUGCAAAGGGUAUGGUAAUAAGCUGACGGACAUGGUCCUAACCACGCAGCCAAGUCCUAAGUCAACAGAUCUUCUGUUGAUAUGGAUGCAGUUCACAGACUAAAUGUCGGUCGGGGAAGAUGUAUUCUUCUCAUAAGAUAUAGUCGGACCUCUCCUUAAUGGGAGCUAGCGGAUGAAGUGAUGCAACACUGGAGCCGCUGGGAACUAAUUUGUAUGCGAAAGUAUAUUGAUUAGUUUUGGAGUACUCGUGGUCG
In short: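 Colonies from six replicate transformations of E. coli BL21(DE3) were pooled and amplicon-sequenced on an Illumina HiSeq 2500. The library placed an intron with all eight P1ex-region nucleotides randomised inside the knt kanamycin-resistance gene on pET-22b(+), and cells grew overnight at 37°C or 30°C on LB agar with or without 25 μg/mL kanamycin (plus 100 μg/mL carbenicillin, 50 μM IPTG, 0.2% rhamnose). Fitness is the DiMSum error-weighted combination of wild-type-normalised replicate fold changes, kanamycin versus none.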

| Sequence | self-splicing fitness (ln) (30 °C) | self-splicing fitness (ln) (37 °C) |
| --- | --- | --- |
| UGCCAGCAAUAUUACGUCCC | -2.89 ± 0.31 | -1.71 ± 0.43 |
| UGCCAGCAAUAUUACGUCUG | -2.57 ± 0.15 | -1.48 ± 0.16 |
| UGCCAGCAAUAUUACGUGAC | -3.43 ± 0.16 | -3.2 ± 0.22 |
| UGCCAGCAAUAUUACGUGUC | -3.01 ± 0.19 | -1.04 ± 0.13 |
| UGCCAGCAAUAUUACGUUAU | -3.98 ± 0.2 | -0.982 ± 0.12 |
| UGCCAGCAAUAUUACGUUCA | -0.171 ± 0.059 | -0.0317 ± 0.089 |
| UGCCAGCAAUAUUACGUUCG | -0.361 ± 0.07 | 0.136 ± 0.089 |
| UGCCAGCAAUAUUACGUUGG | -3.91 ± 0.18 | -2.22 ± 0.15 |
| UGCGAGCAAUAUUACGAAAA | -1.24 ± 0.27 |  |
| UGCGAGCAAUAUUACGAAUG | -2.77 ± 0.18 | -2.43 ± 0.23 |
| UGCGAGCAAUAUUACGACAU | -3.628 ± 0.028 | -2.26 ± 0.039 |
| UGCGAGCAAUAUUACGACCU | -0.697 ± 0.18 | -0.146 ± 0.2 |
| UGCGAGCAAUAUUACGACGA | -1.13 ± 0.13 | -0.458 ± 0.13 |
| UGCGAGCAAUAUUACGAGGU | -1.68 ± 0.19 | -2.24 ± 0.28 |
| UGCGAGCAAUAUUACGCAAG | -2.27 ± 0.27 |  |
| UGCGAGCAAUAUUACGCCAU |  | -2.45 ± 0.49 |

| Sequence | self-splicing fitness (ln) (30 °C) | self-splicing fitness (ln) (37 °C) |
| --- | --- | --- |
| UGCGAGCAAUAUUACGCCCU | -0.783 ± 0.39 |  |
| UGCGAGCAAUAUUACGCUUA | -1.98 ± 0.16 | -1.46 ± 0.22 |
| UGCGAGCAAUAUUACGGCCU | -1.85 ± 0.2 | -1.45 ± 0.24 |
| UGCGAGCAAUAUUACGGCGA | -0.753 ± 0.099 | -0.754 ± 0.11 |
| UGCGAGCAAUAUUACGGCUU | -1.76 ± 0.2 | -2.61 ± 0.33 |
| UGCGAGCAAUAUUACGGGGA | -2.81 ± 0.39 | -1.9 ± 0.29 |
| UGCGAGCAAUAUUACGGGGG | -3.34 ± 0.26 | -2.36 ± 0.29 |
| UGCGAGCAAUAUUACGGGUC | -4.21 ± 0.27 | -2.72 ± 0.3 |
| UGCGAGCAAUAUUACGGUUA | -0.797 ± 0.11 | -0.443 ± 0.12 |
| UGCGAGCAAUAUUACGUAAC | -3.17 ± 0.18 | -3.09 ± 0.27 |
| UGCGAGCAAUAUUACGUCAG | -2.69 ± 0.27 | -2.11 ± 0.43 |
| UGCGAGCAAUAUUACGUGAC | -3.73 ± 0.36 | -2.31 ± 0.26 |
| UGCGAGCAAUAUUACGUGUU | -3.58 ± 0.43 | -2.47 ± 0.32 |
| UGCGAGCAAUAUUACGUUGU | -2.79 ± 0.18 | -3.05 ± 0.27 |
| UGCUAGCAAUAUUACGAAUC | -3.2 ± 0.15 | -3.95 ± 0.29 |
